Data from article PMC4439613, “TRIP13 is a protein-remodeling AAA+ ATPase that catalyzes MAD2 conformation switching” (eLife, 2015).

T1: His6-tagged M. musculus p31(comet) (M. musculus, UniProt Q9DCX1 1-276)
T1 construct: p31(comet), M. musculus, full length; The same construct as m12 with the TEV-cleavable His6 tag left on for the Ni2+ pull-down; also called His6-tagged p31(comet); source: E. coli Rosetta 2 (DE3) pLysS, purified; not shown: His6, N-terminal, kept
T1 sequence (looked up): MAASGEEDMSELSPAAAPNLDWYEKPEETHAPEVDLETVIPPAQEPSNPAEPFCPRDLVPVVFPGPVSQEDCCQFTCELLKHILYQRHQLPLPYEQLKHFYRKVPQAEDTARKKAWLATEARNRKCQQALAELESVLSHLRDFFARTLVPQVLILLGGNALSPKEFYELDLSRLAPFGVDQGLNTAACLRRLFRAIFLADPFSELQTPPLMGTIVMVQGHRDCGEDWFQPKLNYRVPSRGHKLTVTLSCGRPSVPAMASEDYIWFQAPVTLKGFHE

T2: M. musculus p31(comet) (wild type, tag cleaved) (M. musculus, UniProt Q9DCX1 1-276)
T2 construct: p31(comet), M. musculus, full length; also called wild-type p31(comet); source: E. coli Rosetta 2 (DE3) pLysS, purified (Ni-NTA, Hitrap Q ion exchange, Superdex 200 SEC); not shown: His6, N-terminal, cleaved
T2 sequence (looked up): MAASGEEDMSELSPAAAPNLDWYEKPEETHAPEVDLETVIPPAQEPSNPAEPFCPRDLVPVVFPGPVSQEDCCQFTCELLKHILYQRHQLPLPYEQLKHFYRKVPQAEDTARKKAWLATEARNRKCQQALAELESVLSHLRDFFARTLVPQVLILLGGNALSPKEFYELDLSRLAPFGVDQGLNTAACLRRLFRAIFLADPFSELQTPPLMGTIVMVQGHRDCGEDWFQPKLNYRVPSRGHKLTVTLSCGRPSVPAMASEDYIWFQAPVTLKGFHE

B1: Mus musculus TRIP13 (enzyme, M. musculus, UniProt Q3UA06 1-432, looked up)
chain: MDEAVGDLKQALPCVAESPAVHVEVLQRSGSTAKKEDIKSSVYRLLNRHNIVFGDYVWTEFDDPFLSRNVQSVSIVDTELKAKDPQPIDLSACTIALHIFQLNEEGPSSENLDEETENIIAASHWVLPAAEFHGLWDSLVYDVEVKSHLLDYVMTTVLFSDKNVDSNLITWNRVVLLHGPPGTGKTSLCKALAQKLTIRLSSRYRYGQLIEINSHSLFSKWFSESGKLVTKMFQKIQDLIDDKEALVFVLIDEVESLTAARNACRAGAEPSDAIRVVNAVLTQIDQIKRHSNVVILTTSNITEKIDVAFVDRADIKQYIGPPSAAAIFKIYLSCLEELMKCQIIYPRQQLLTLRELEMIGFIENNVSKLSLLLSEISRKSEGLSGRVLRKLPFLAHALYIQAPSVTIEGFLQALSLAVDKQFEEKKKLSAYV
notes: TRIP13, M. musculus, full length; Mixture of oligomeric states from monomer to hexamer by SEC-MALS; also called wild-type TRIP13; source: E. coli Rosetta 2 (DE3) pLysS, purified (Ni-NTA, Hitrap Q ion exchange, Superdex 200 SEC); not shown: His6, N-terminal, cleaved
B2: TRIP13 (Mus musculus; W221A) (protein)
chain: MDEAVGDLKQALPCVAESPAVHVEVLQRSGSTAKKEDIKSSVYRLLNRHNIVFGDYVWTEFDDPFLSRNVQSVSIVDTELKAKDPQPIDLSACTIALHIFQLNEEGPSSENLDEETENIIAASHWVLPAAEFHGLWDSLVYDVEVKSHLLDYVMTTVLFSDKNVDSNLITWNRVVLLHGPPGTGKTSLCKALAQKLTIRLSSRYRYGQLIEINSHSLFSKAFSESGKLVTKMFQKIQDLIDDKEALVFVLIDEVESLTAARNACRAGAEPSDAIRVVNAVLTQIDQIKRHSNVVILTTSNITEKIDVAFVDRADIKQYIGPPSAAAIFKIYLSCLEELMKCQIIYPRQQLLTLRELEMIGFIENNVSKLSLLLSEISRKSEGLSGRVLRKLPFLAHALYIQAPSVTIEGFLQALSLAVDKQFEEKKKLSAYV
notes: full-length, N-terminal His6 tag removed with TEV protease, E. coli Rosetta 2 (DE3) pLysS
B3: M. musculus TRIP13^E253Q (enzyme, UniProt Q3UA06 1-432, looked up)
chain: MDEAVGDLKQALPCVAESPAVHVEVLQRSGSTAKKEDIKSSVYRLLNRHNIVFGDYVWTEFDDPFLSRNVQSVSIVDTELKAKDPQPIDLSACTIALHIFQLNEEGPSSENLDEETENIIAASHWVLPAAEFHGLWDSLVYDVEVKSHLLDYVMTTVLFSDKNVDSNLITWNRVVLLHGPPGTGKTSLCKALAQKLTIRLSSRYRYGQLIEINSHSLFSKWFSESGKLVTKMFQKIQDLIDDKEALVFVLIDQVESLTAARNACRAGAEPSDAIRVVNAVLTQIDQIKRHSNVVILTTSNITEKIDVAFVDRADIKQYIGPPSAAAIFKIYLSCLEELMKCQIIYPRQQLLTLRELEMIGFIENNVSKLSLLLSEISRKSEGLSGRVLRKLPFLAHALYIQAPSVTIEGFLQALSLAVDKQFEEKKKLSAYV
notes: TRIP13, M. musculus, full length, Walker B mutation E253Q; also called Walker B mutant; ATP hydrolysis-defective TRIP13; source: E. coli Rosetta 2 (DE3) pLysS, purified (Ni-NTA, Hitrap Q ion exchange, Superdex 200 SEC); not shown: His6, N-terminal, cleaved
B4: M. musculus MAD2 (wild type) (natural protein, UniProt Q9Z1B5 1-205, looked up)
chain: MAQQLAREQGITLRGSAEIVAEFFSFGINSILYQRGIYPSETFTRVQKYGLTLLTTTDPELIKYLNNVVEQLKEWLYKCSVQKLVVVISNIESGEVLERWQFDIECDKTAKEEGVRREKSQKAIQDEIRSVIRQITATVTFLPLLEVSCSFDLLIYTDKDLVVPEKWEESGPQFITNCEEVRLRSFTTTIHKVNSMVAYKTPVND
notes: MAD2, M. musculus, full length; Predominantly dimeric by SEC-MALS; also called WT MAD2; wild-type MAD2 dimer; source: E. coli Rosetta 2 (DE3) pLysS, purified (Ni-NTA, Hitrap Q ion exchange, Superdex 200 SEC); not shown: His6, N-terminal, cleaved
B5: M. musculus C-MAD2^R133A (closed conformer of the monomeric MAD2 R133A variant) (natural protein, UniProt Q9Z1B5 1-205, looked up)
chain: MAQQLAREQGITLRGSAEIVAEFFSFGINSILYQRGIYPSETFTRVQKYGLTLLTTTDPELIKYLNNVVEQLKEWLYKCSVQKLVVVISNIESGEVLERWQFDIECDKTAKEEGVRREKSQKAIQDEIRSVIAQITATVTFLPLLEVSCSFDLLIYTDKDLVVPEKWEESGPQFITNCEEVRLRSFTTTIHKVNSMVAYKTPVND
notes: MAD2, M. musculus, full length, dimerization-defective mutation R133A; the closed conformer, purified apart from the open one by anion exchange; also called closed MAD2; source: E. coli Rosetta 2 (DE3) pLysS, purified; closed conformer peak separated by anion exchange; not shown: His6, N-terminal, cleaved

How the values were obtained:
[1] = molecular target: the molecule itself; test: SEC-MALS; single purified proteins on Superdex 200 10/300 GL; PCH-2 and TRIP13 with and without added nucleotides
[2] = substrate: Nc1ncnc2c1ncn2[C@@H]1O[C@H](COP(=O)(O)OP(=O)(O)OP(=O)(O)O)[C@@H](O)[C@H]1O; test: enzyme-coupled ATPase assay (pyruvate kinase / lactate dehydrogenase, NADH); assay type: biochemical, Mus musculus; conditions: basal, pH 8.5, 27 °C, 10 mM MgCl2, 200 mM NaCl, kcat per hexamer
[3] = molecular target: T1, His6-tagged M. musculus p31(comet); test: pull-down; Ni2+ pull-down: 300 pmol His6-tagged p31(comet) with 450 pmol untagged MAD2 in 50 μl (20 mM Tris-HCl pH 7.5 or 8.5, 200 mM NaCl, 20 mM imidazole, 0.1% NP-40), 20°C, Ni-NTA magnetic beads, Coomassie; conditions: both partners purified
[4] = molecular target: T2, M. musculus p31(comet) (wild type, tag …); test: SEC; as a8 but mixtures of two of the three proteins (one left out); conditions: both partners purified

Binder	stoichiometry N [1]	Km [2] [µM]	kcat [2]	binding result [3]	binding result [4]
B1	≤ 6	13.9 ± 0.6	8.7 +/- 0.1 ATP min^-1		
B2		24.4 ± 1.3	18.7 +/- 0.2 ATP min^-1		
B3	6				
B4	2			binds	
B5					binds
